In US8772012B2, “Xylose isomerase and use thereof” (Kabushiki Kaisha Toyota Chuo Kenkyusho, priority 2009, dated 2014):
Where “and” joins values, the source holds several entries; their conditions need not be identical. Identical values can stand only once.

Tested on: OC1OC[C@@H](O)[C@H](O)[C@H]1O
Test: cells, lysate or membranes named
Conditions: other: xylose 5 to 250 mM, pH 7.5, 30° C., 10 mM MgCl2, crude yeast extract, Hanes-Woolf plot

**Q.** How did the Km turn out when “Piromyces sp. E2 xylose isomerase PiXI-O (PiXI; codon optimized gene PiXI-O, SEQ ID NO: 46), expressed in yeast (Piromyces sp. E2)” was run?
**A.** 40 mM and 39.87 ± 7.43 mM
